Seven variants from publication PMC7311171 (2020) can be followed below.

The chains are these.
B1: BBS7, in vitro translated, tagged with a 6xMyc epitope [not stated] / GST-SMO^H8 (GST fused to the first 19 amino acids of SMO^Ctail, aa 543–559) [mouse] (parent complex)
chain 1: MDLILNRMDYLQVGVTSQKTMKLIPASRHRATQKVVIGDHDGVVMCFGMKKGEAAAVFKTLPGPKIARLELGGVINTPQEKIFIAAASEIRGFTKRGKQFLSFETNLTESIKAMHISGSDLFLSASYIYNHYCDCKDQHYYLSGDKINDVICLPVERLSRITPVLACQDRVLRVLQGSDVMYAVEVPGPPTVLALHNGNGGDSGEDLLFGTSDGKLALIQITTSKPVRKWEIQNEKKRGGILCIDSFDIVGDGVKDLLVGRDDGMVEVYSFDNANEPVLRFDQMLSESVTSIQGGCVGKDSYDEIVVSTYSGWVTGLTTEPIHKESGPGEELKINQEMQNKISSLRNELEHLQYKVLQERENYQQSSQSSKAKSAVPSFGINDKFTLNKDDASYSLILEVQTAIDNVLIQSDVPIDLLDVDKNSAVVSFSSCDSESNDNFLLATYRCQADTTRLELKIRSIEGQYGTLQAYVTPRIQPKTCQVRQYHIKPLSLHQRTHFIDHDRPMNTLTLTGQFSFAEVHSWVVFCLPEVPEKPPAGECVTFYFQNTFLDTQLESTYRKGEGVFKSDNISTISILKDVLSKEATKRKINLNISYEINEVSVKHTLKLIHPKLEYQLLLAKKVQLIDALKELQIHEGNTNFLIPEYHCILEEADHLQEEYKKQPAHLERLYG
chain 2: KATLLIWRRTWCRLTGH

Variants of B1 are the subject of this experiment. In words: GST capture assay (pull-down) of in vitro translated Myc-BBS7, quantified from anti-Myc blot; parent: 4.4; read off a plot.
Take chain 2 R8A: the response was ~1.3 ‰.
The value for chain 2 W7A was ~0.85 ‰; that for chain 2 W11A was ~3.6 ‰; that for chain 2 W7A, chain 2 R8A, chain 2 W11A, chain 2 C12A was ~0.12 ‰.
The value for chain 2 R8A, chain 2 C12A was ~0.9 ‰.
In the case of chain 2 C12A, the response was ~4.9 ‰.
With chain 2 W7A, chain 2 W11A, the response is ~0.28 ‰.
